What was measured:
STAT3 = STAT3 phosphorylation in HaCaT cells by FACS (tissue activation preference); type: cell-based, Human; conditions: STAT3 activation in HT29 vs HaCaT cells
Method: Human immortalized keratinocyte HaCaT cells were recovered and cultured in MEM/EBSS medium (Cytiva, SH30024.01) supplemented with 15% FBS and 1% P/S (Cytiva, SV30010). When cell confluence reached 70%-80%, cells were digested with 0.25% Trypsin-EDTA (Gibco, 25200-056), terminated with complete medium, and resuspended to […]. After mixed thoroughly, a total of 120 µL per well cells was seeded into a 96-well plate (Corning, 3599) at a density of 1.5 × 10^5 cells per well and incubated overnight at 37°C with 5% CO2.
wt IL-22 was prepared at an initial working concentration of 1000 nM, and the remaining samples were prepared at 10000 nM as the starting concentration. […] After staining at room temperature in the dark for 1 hour, cells were washed twice with 1× PBS and analyzed by flow cytometry to determine the mean fluorescence intensity (MFI).
Tissue activation preference of different test candidates was evaluated by comparing their ability to activate STAT3 in intestinal-derived HT29 cells and skin-derived HaCaT cells. […] The activity of PEGylated IL-22 mutants in activating STAT3 phosphorylation in HaCaT cells at different concentrations as determined by FACS is shown in Figure 8. […] Tissue preference of PEG-IL22 mutants for STAT3 phosphorylation in human intestinal and human skin cell lines determined by FACS

Reg3β = test: Mouse PD: plasma Reg3β after single administration (ELISA); type: in vivo; set-up: Reg3βCmax: unit not given here; conditions: for Reg3βCmax: mouse plasma, wt IL-22 i.p.
Method: The ELISA method was used to determine the baseline levels and post-dose changes of the biomarker Reg3β in plasma samples before and after administration of different test candidates.
For the preferable test candidates, one mouse per dose group was subcutaneously injected at 0.5, 1, or 3 mg/kg. The control molecules were IL-22-Fc, administered subcutaneously at 0.3 and 1 mg/kg, and wt IL-22, administered intraperitoneally at the corresponding doses.
Approximately 40 µL of orbital blood was collected with anticoagulation on the day before dosing and at 4, 24, 48, 96, 144, 192, 264, 336, and 408 hours after dosing, followed by plasma separation. ELISA plates were coated overnight at 4°C with 1 µg/mL anti-Reg3β (Sino Biological, 51153-R065) dissolved in PBS. Mouse Reg3β (Sino Biological, 51153-M08H) was serially diluted to generate a positive control standard curve. Plasma samples were appropriately diluted to fall within the linear range of the standard curve. After blocking, samples were added and incubated for 2 hours. Incubation was then performed with the secondary antibody sheep anti-mouse Reg3β (R&D Systems, AF5110-SP) and HRP-conjugated antibody (HRP-Rabbit anti-sheep IgG H&L, Abcam, Ab97130). After final washing, tetramethylbenzidine peroxidase substrate (TMB, Surmodics, TMBS-1000-01) was added for color development for 10 minutes. The reaction was terminated with 2 M sulfuric acid, and absorbance was read at 450 nm with 630 nm as reference using a microplate reader. The original concentrations of Reg3β in each sample were calculated. Concentration versus time curves were plotted (Figure 9).

B1: 60K-PEG-IL22-P120C: IL-22 cysteine mutant, conjugation site 87, PEG-maleimide 60kD (conjugate)
chain: APISSHCRLDKSNFQQPYITNRTFMLAKEASLADNNTDVRLIGEKLFHGVSMSERCYLMKQVLNFTLEEVLFPQSDRFQPYMQEVVCFLARLSNRLSTCHIEGDDLHIQRNVQKLKDTVKKLGESGEIKAIGELDLLFMSLRNACI
With B1 the “tissue preference compared with IL-22-Fc” value (STAT3) was “superior tissue preference”, the “Normalized Cmax ratio of Reg3β (relative to IL-22-Fc)” value (Reg3β; 0.5mg/kg single dose vs IL-22-Fc 0.3 mg/kg) was 265% and the Reg3βCmax (Reg3β; 0.5mg/kg single dose, test candidates s.c., one mouse per dose group) was 41.8. For the same molecule, the “Normalized Cmax ratio of Reg3β (relative to IL-22-Fc)” value (Reg3β; 1mg/kg single dose) was 133%, the Reg3βCmax (Reg3β; 1mg/kg single dose, s.c.) was 43.9 and the Reg3βCmax (Reg3β; 3mg/kg single dose, s.c.) was 43.3. The “peak concentrations of Reg3β stimulation compared with IL-22-Fc” value (Reg3β; similar (0.5 mg/kg vs. 0.3 mg/kg) or identical (1 mg/kg) doses) was “higher peak concentrations”.
